Source: PMC9971907, “Cryo-EM analysis of V/A-ATPase intermediates reveals the transition of the ground-state structure to steady-state structures by sequential ATP binding” (The Journal of Biological Chemistry, 2023)

Molecular target: T1, V/A-ATPase D subunit, Thermus thermophilus (T. thermophilus, UniProt O87880 1-223)
T1 construct: V/A-ATPase D subunit (central rotor), Thermus thermophilus; also called part of the DF rotor; DF axis
T1 sequence: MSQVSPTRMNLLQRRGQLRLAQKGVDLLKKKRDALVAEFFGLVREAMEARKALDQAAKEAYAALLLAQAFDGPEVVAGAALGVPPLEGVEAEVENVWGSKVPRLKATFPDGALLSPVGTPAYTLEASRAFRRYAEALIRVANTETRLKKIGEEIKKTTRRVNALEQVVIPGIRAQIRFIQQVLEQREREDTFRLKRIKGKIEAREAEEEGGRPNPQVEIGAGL
Experiment: cryo-EM structure; nucleotide-free V/A-ATPase in nanodiscs, 4 uM enzyme mixed with an equal volume of x2 RB buffer (50 mM Tris-Cl pH 8.0, 100 mM KCl, 2 mM MgCl2, 5 mM PEP, 100 ug/ml PK, 20 mM ammonium sulfate) with ATP-Mg (low ATP, 60 s; or saturating ATP, 5 s or 30 s) at 25 °C; single-particle analysis, membrane domain subtracted, focused refinement of V1EG
Conditions: both partners purified

binding result: binds
B1: V/A-ATPase F subunit, Thermus thermophilus (natural protein, T. thermophilus)
chain: MAVIADPETAQGFRLAGLEGYGASSAEEAQSLLETLVERGGYALVAVDEALLPDPERAVERLMRGRDLPVLLPIAGLKEAFQGHDVEGYMRELVRKTIGFDIKL
notes: V/A-ATPase F subunit (central rotor), Thermus thermophilus; also called part of the DF rotor; DF axis
